{
  "source": "paper PMC12705702",
  "about": "“Structural insights into the atypical filament assembly of pyrin domain-containing IFI16” (The EMBO Journal, 2025)",
  "target": "the molecule itself",
  "assay": "cryo-EM structure; filament auto-assembled by recombinant IFI16^PYD; 73 uM in 40 mM HEPES pH 7.4, 160 mM NaCl, 1 mM EDTA, 1 mM DTT; helical reconstruction, 3.3 Å",
  "data": [
    {"protein": "human IFI16 pyrin domain (IFI16^PYD, residues 1-94) with C-terminal His6-tag (domain or fragment, UniProt Q16666 1-94, looked up, Interferon-inducible protein 16 (IFI16), human, pyrin domain, residues 1-94; Assembles into a helical filament; the number of protomers in a filament is open-ended; also called recombinant IFI16^PYD; pET21b IFI16^PYD-His6; source: E. coli BL21(DE3), purified (Ni-NTA, Superdex 75 size exclusion)) MGKKYKNIVLLKGLEVINDYHFRMVKSLLSNDLKLNLKMREEYDKIQIADLMEEKFRGDAGLGKLIKIFEDIPTLEDLAETLKKEKLKVKGPAL", "values": [
      {"measurement": "binding result", "value": "binds"}
    ]}
  ]
}
